Results from patent US20090169520A1 (YISSUM RESEARCH DEVELOPMENT COMPANY OF THE HEBREW …, published 2009).

B1: ASP63 (synthetic AChE-S C-terminal peptide, residues 548-610 of hAChE) (peptide)
peptide: PLEVRRGLRAQACAFWNRFLPKLLSATDTLDEAERQWKAEFHRWSSYMVHWKNQFDHYSKQDR

biological target: synthetic Aβ (1-40) peptide (Biosource) (UniProt P05067 672-711); test: cell-based or functional assay
Sequence (P05067 672-711 limits assumed): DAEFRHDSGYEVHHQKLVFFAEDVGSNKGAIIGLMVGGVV

Binder	Lag (fold change) of Aβ fibrillation against no addition [fold]	Lag (h) before onset of Aβ fibrillation [h]	Rate (fold change) of Aβ fibrillation against no addition [fold]
DTLDEAERQWKAEFHRWSSYMVHWKNQFDHYSKQDRCSDL [ASP40 (synthetic AChE-S C-terminal peptide, residues 575-614 of hAChE)]	1.1	4.4	0.8
B1	1.5	5.9	0.7
GNIDEAEWEWKAGFHRWNNYMMDWKNQFNDYTSKKESCVGL [BSP41 (synthetic BChE C-terminal peptide, residues 562-602 of hBChE)]	> 1.9	> 7.5	0.4
